Our source for the pKa values is article PMC4705956.

The data set concerns the target Asp93 (UniProt position 93, WARYADWLFTT). In words: UV-vis. The note with it: 298 K; 100 mM NaCl (Fig. 7 caption); the Methods state 4 M NaCl for UV-visible spectroscopy; Not stated for the titration; the Methods give 50 mM Tris-HCl for UV-visible samples; Folded, retinal-bound, detergent-solubilised. Light or dark adaptation is not stated.

As usually defined, the pKa is the pH at which an ionisable group is half protonated. Regarding “Bacteriorhodopsin (HwBR) (Haloquadratum walsbyi)”, the pKa was 1.97.

Turning to “Bacteriorhodopsin (HwBR) R82E mutant (Haloquadratum walsbyi; R82E)”, the pKa worked out at 2.24.
